In data set [1] the test system is DCs. The experiment in a line: PpIX flow cytometry analysis and hemin colorimetric assay. Type of data set: cell-based, Murine. As for the experimental part: (§1) IDO enzymatic assay and Hemin assay: DC IDO enzyme activity was measured by the conversion of L-tryptophan to L-kynurenine in conditioned media by HPLC (Pallotta et al., 2011). Intracellular hemin was measured using a colorimetric assay kit (BioVision).
PpIX Analysis: DCs were terminally incubated in the presence of 1 mM δ-aminolevulinic acid (ALA) for 4 hrs. Intracellular PpIX was analyzed by flow cytometry as previously described (Hryhorenko et al., 1998).
(In flow cytometry, cells or beads pass a laser one at a time.)

The next data set deals with DC IDO. The experiment in a line: IDO enzymatic assay (kynurenine in conditioned media by HPLC). Type of data set: cell-based, Murine. Conditions: purified DC cultures or tumor-infiltrating DCs. As for the experimental part: as §1
Another data set relates to BMDCs. The experiment in a line: Metabolomics LC-MS of TCA intermediates. Type of data set: cell-based, Murine. The settings on record: rWnt5a stimulation. As for the experimental part: Metabolomics: Metabolites were extracted from 5×106 BMDCs and subjected to LC-MS analysis according to a previously published protocol (Liu et al., 2014a, Liu et al., 2014b). Metabolites were extracted from 5×106 BMDCs from each experimental group (3 mice per group), washed with ice cold PBS, and lysed in 80% (v/v) methanol on dry ice. Cell lysates were frozen at −80° C. for 15 minutes to disrupt cell membrane and quench enzymatic activity. Samples were then thawed on ice, vortexed rigorously to extract metabolites, and then centrifuged at 20,000 g at 4° C. to precipitate proteins and cell debris. Metabolite extracts were then dried using a speed vacuum and subjected to LC-MS analysis (Liu et al., 2014a, Liu et al., 2014b). Data collected from LC-Q exactive MS is processed on Sieve 2.0 (Thermo). For metabolite analysis, theoretical m/z and retention time of 263 known metabolites were used for positive mode, and 197 metabolites were used for negative mode. Data containing detected m/z and relative intensity of different samples were obtained.

Data set [2] has as its system DCs. The experiment in a line: Extracellular acidification rate (ECAR), Seahorse XFe24 flux analysis of DCs. It counts as cell-based, Murine. As for the experimental part:
Dendritic Cell Conditioning: DCs were treated with Wnt3a (100 ng/mL), Wnt5a (200 ng/mL), LPS (1 μg/mL), 1-MT (1 mM), 2DG (1 mM), or ETO (100 μM), 2-DG(2-deoxy-d-glucose, 1 mM), Oligomycin (1 μM), succinylacetone (250 μM), or vehicle control either for 24 or 48 hrs prior to their use in both in vitro and in vivo experiments.
Cellular Energy Metabolism Analysis: DC energy metabolism was measured using the XFe24 extracellular flux analyzer (Seahorse Bioscience), with the glycolysis stress test kit and the mitochondrial stress test kit as previously described (Everts et al., 2014, Zhao and Klimecki, 2015). For experiments involving LPS injection, DCs were plated in XFe24 plates (200,000/well in 500p1) and treated with LPS for 48 hours prior to XF analysis. DCs were washed and analyzed in XF media (RPMI without sodium bicarbonate, 10 mM glucose, 1% FBS, 2 mM L-glutamine). ECAR was analyzed in real-time with or without LPS stimulation. For experiments involving BrafV600EPten−/− cell line-derived conditioned media (CM), collected CM was concentrated and desalted with an Amicon Ultra 30K filter according to manufacturer's recommendations (Milipore). Final concentrate was further washed with XF media 3 times, added to DCs immediately prior to OCR analysis. For standard ECAR analysis, XF media (without glucose) was used to wash cells prior to the assay. A final concentration of 10 mM glucose, 1 μM oligomycin, 50 mM 2-DG(sigma) were injected through XFe24 port A-C. For standard OCR analysis, XF media (with 10 mM glucose) was used to wash cells, a final concentration of 1 μM oligomycin, 1.5 μM FCCP (fluoro-carbonyl cyanide phenylhydrazone), 100 nM rotenone, and 1 μM of antimycin-A (Sigma) were injected through XFe24 port A-C.

In data set [3] the test system is CD8+ T cell proliferation. Kind of data set: T cell proliferation assay (CellTrace Violet dilution, OT-1 splenocytes with conditioned DCs). The settings on record: DCs pre-treated, LPS stimulated. It counts as cell-based, mice. As for the experimental part: T Cell Proliferation Assay: Splenocytes of OT-1 mice (H-2b) were isolated and stained with CellTrace Violet (ThermoFisher). Preconditioned DCs were loaded with ovalbumin peptide SIINFEKL, and co-cultured at a DC:splenocyte ratio of 40,000:120,000 cells for 72 hrs. CD8+ T cell proliferation was measured by the dilution of Cell Trace Violet dye by flow cytometry.

A further data set deals with AMPK. The experiment in a line: Thr-172 phospho-AMPK immunoblot analysis of DCs. Type of data set: cell-based, Murine. Conditions: Wnt5a 200 ng/mL, 24 and 48 hrs. From the text:
Data is representative of 3 independent experiments. […] Data is representative of 3 independent experiments. […] Antibodies, Immunoprecipitation, and Immunoblot Analysis: Primary antibodies including CPT1A (Cell signaling), PPAR-γ (Santa Cruz Biotechnology), β-catenin, β-actin (Millipore), p-AMPK(T172)/AMPK (Cell signaling), p-AKT(T308)/Akt (Cell Signaling) were used at 1:1000. Secondary antibodies including goat anti-rabbit IgG-HRP (Millipore) and goat anti-mouse IgG-HRP (Millipore) were used at 1:5000. Cells were lysed in Laemmli sample buffer after treatment and subjected to SDS-polyacrylamide gel electrophoresis and immunoblot analysis. For immunoprecipitation, cells were lysed in radio immunoprecipitation assay (RIPA) buffer [10 mM sodium phosphate (pH 8.0), 150 mM NaCl, 1% Triton X-100, 1% sodium deoxycholate, and 0.1% SDS in the presence of 1 mM DTT, 1 mM phenylmethylsulfonylfluoride, and a protease inhibitor cocktail (Sigma)], precleared with protein A beads, and then incubated with 1 μg of antibody against β-catenin or isotype control IgG with protein A-agarose beads on a rotator overnight at 4° C. After 3 washes with RIPA buffer, immunoprecipitated complexes were eluted in sample buffer by boiling and subjected to immunoblot analysis. Immunoblots were visualized by chemiluminescence substrate (ThermoFisher) and imaged by a ChemiDoc XRSplus system (BioRad).
In general terms: In western blotting, separated proteins are transferred to a membrane and probed.

Data set [4] concerns DCs. The experiment in a line: Flow cytometry of DC surface maturation markers. It counts as cell-based, Murine. As for the experimental part:
Flow Cytometry: One million cells were stained with 1 μg per million cells of each fluorochrome conjugated antibodies or commercially available dyes according to the standard protocols and analyzed using a FACSCanto II or LSRII (Becton Dickinson).

B1: Wnt5a: Recombinant Human/Mouse Wnt5a Protein (R&D Systems) (protein, UniProt P41221 62-380, looked up)
Protein Wnt-5a: IIGAQPLCSQLAGLSQGQKKLCHLYQDHMQYIGEGAKTGIKECQYQFRHRRWNCSTVDNTSVFGRVMQIGSRETAFTYAVSAAGVVNAMSRACREGELSTCGCSRAARPKDLPRDWLWGGCGDNIDYGYRFAKEFVDARERERIHAKGSYESARILMNLHNNEAGRRTVYNLADVACKCHGVSGSCSLKTCWLQLADFRKVGDALKEKYDSAAAMRLNSRGKLVQVNSRFNSPTTQDLVYIDPSPDYCVRNESTGSLGTQGRLCNKTSEGMDGCELMCCGRGYDQFKTVQTERCHCKFHWCCYVKCKKCTEIVDQFVCK
On to B1, for which the “DC concentrations of PpIX and hemin” value with DCs [1] was “enhanced DC concentrations of the PpIX prosthetic group and its downstream degradation product, hemin”. The “DC IDO enzymatic activity (kynurenine)” value in the data set on DC IDO is on record as “promoted DC IDO enzymatic activity”. The TCA intermediate metabolites entry with BMDCs is “increased quantities of many TCA intermediates but a decrease in α-ketoglutarate”. For the same molecule, in the data set with DCs [2] (DCs pre-treated), the “LPS-induced glycolytic surge (ECAR)” value is reported as “suppressed the lipopolysaccharide (LPS)-induced glycolytic surge”. In the data set on DCs [2] (within 90 min of stimulation), the “glycolysis (ECAR) acutely after stimulation” value is on record as “failed to impact glycolysis”. Moreover, in data set [3], the “LPS-induced DC-mediated antigen-specific T cell proliferation” value was “suppresses LPS-induced DC-mediated antigen-specific T cell proliferation”. In addition, the “AMPK activation (Thr-172 phospho-AMPK)” value in the data set on AMPK is given as “suppressed AMPK activation”. Moreover, the “DC surface maturation markers / co-stimulatory receptors” value in the data set on DCs [4] is on record as “absence of any alterations in DC surface maturation markers”.

The values above are taken from patent publication US11643691B2, “Predictive biomarkers for cancer immunotherapy and methods of using same” (Duke University, priority 2018, dated 2023).
